Patent US20250270309A1 (Eli Lilly, published 2025)

T1: human IL-19 (human, UniProt Q9UHD0 25-177)
T1 sequence: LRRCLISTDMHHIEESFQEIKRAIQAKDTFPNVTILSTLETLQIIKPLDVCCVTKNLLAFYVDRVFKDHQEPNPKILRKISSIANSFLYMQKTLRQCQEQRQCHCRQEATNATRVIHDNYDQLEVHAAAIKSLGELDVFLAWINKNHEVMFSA

T2: cyno IL-19 (cyno)
T2 chain: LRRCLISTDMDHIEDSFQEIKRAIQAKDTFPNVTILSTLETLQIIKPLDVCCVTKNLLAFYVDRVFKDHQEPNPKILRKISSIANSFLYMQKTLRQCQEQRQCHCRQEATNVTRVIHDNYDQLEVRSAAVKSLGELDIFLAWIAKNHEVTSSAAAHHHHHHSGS

T3: mouse IL-19 (mouse, UniProt Q8CJ70 25-176, limits assumed)
T3 construct: Used as immunogen and for panning; in the in-house ELISA it is the IL-19 secreted in mouse ear cultures; also called murine IL-19
T3 sequence (looked up): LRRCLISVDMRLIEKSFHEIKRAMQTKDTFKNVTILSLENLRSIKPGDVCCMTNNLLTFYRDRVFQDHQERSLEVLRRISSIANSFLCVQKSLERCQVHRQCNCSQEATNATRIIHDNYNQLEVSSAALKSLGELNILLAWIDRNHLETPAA


Columns and labels:
[1] = molecular target: T1, human IL-19; test: cell-based or functional assay
[2] = molecular target: T2, cyno IL-19; test: cell-based or functional assay
[3] = molecular target: T1, human IL-19; test: cell-based or functional assay; remark: listed apart in the source
[4] = molecular target: T2, cyno IL-19; test: cell-based or functional assay
[5] = molecular target: T1, human IL-19; test: MSD-SET solution equilibrium titration, 10 pM fixed biotinylated human IL-19, 37 C, mean of 3 experiments
Description: A Meso Scale Discovery Solution Equilibrium Titration (MSD-SET) assay, measured with a SECTOR® Imager 6000 (Meso Scale Diagnostics), is used to assess binding of exemplified IL-19 antibodies of the present invention to biotinylated human IL-19 (having the amino acid sequence set for in SEQ ID NO: 1).
Except as noted, all the reagents and materials are from Meso Scale Diagnostics (Rockville, Maryland). Recombinant human IL-19 reagents are biotinylated using the EZ-link sulfo-NHS-Biotin kit (Thermo Cat #A39257). Briefly, 20 pM biotinylated human IL-19 is mixed in a 1:1 ratio with a 3-fold dilution series of exemplified antibody samples of the present invention (mAb 1 and mAb 2) to give a final concentration of: 10 pM biotinylated human IL-19 and a 11-point 3-fold antibody gradient from 1 nM to 0.017 pM. The mix is incubated at 37° C. for 72 hrs. […] After washing three times with wash buffer, 150 μL of 1× Read Buffer T (Cat. #R92TC-1) is added to the well and analyzed on a SECTOR® Imager 6000 (Meso Scale Diagnostics) 5 min after buffer addition. […]
The equilibrium KD is determined by fitting a sigmoidal curve to the electrochemiluminescence (ECL) response vs. log (IL-19 concentration) using assay development tool kit graphed with normalized ECL values.

[6] = molecular target: T3, mouse IL-19; test: yeast surface display of single-chain Fab library, panning with mouse IL-19

Row | IC50 for human IL-19 (IL-19 induced IL20Ra/IL20Rb receptor dimerization signal, U2OS PathHunter cells) [1] | IC50 for Cyno IL-19 (IL-19 induced IL20Ra/IL20Rb receptor dimerization signal, U2OS PathHunter cells) [2] | IC50 with human IL-19 (IL-19 induced phospho-STAT3 signal, A431 cells) [3] | IC50 with Cyno IL-19 (IL-19 induced phospho-STAT3 signal, A431 cells) [4] | Kd [5] | binding result [6] | Binder
1 | 3.46 nM | 2.79 nM | 2.31 nM | 1.82 nM | 0.0131 nM | – | Ab1 (antibody, human IgG4 S228P, kappa, F234A L235A, V domains shown, Anti-human IL-19 antibody; Detected with anti-human IgG4 reagents in the PK ELISA, so IgG4; also called mAb 1; mAb1) VH: not shown VL: AIQLTQSPSSLSASVGDRVTITCRASQDIRSDFGWYQQKPGKAPKLLIYAASSLQSGVPSRFSGSGSGTDFTLTISSLQPEDFATYYCLQDYNYPWTFGQGTKVEIKR
2 | 3.47 nM | 2.87 nM | 2.21 nM | 1.84 nM | 0.0068 nM | – | Ab2 (antibody, human IgG4 S228P, kappa, F234A L235A, V domains shown, Anti-human IL-19 antibody; also called mAb 2; mAb2) VH: not shown VL: AIQLTQSPSSLSASVGDRVTITCRASQDIRSDFGWYQQKPGKAPKLLIYAASSLQSGVPSRFSGSGSGTDFTLTISSLQPEDFATYYCLQDYNYPWTFGQGTKVEIKR
3 | – | – | – | – | – | binds | anti-murine IL-19 Ab mAb4 (antibody, V domains shown, also called anti-murine IL-19 Ab4) VH: QEQLKESGGGLVQPGGSLKLSCKASGFPLSSYGFSWVRQAPGKGLEWIGYLDPVFGSTLSAHTVNGRLTISSDNAQNTLYLQLNSLTAADTATYFCARGIGYVYYGYTYDLWGPGTLVTVSS VL: DIVMTQTPASVEAAVGGTVTIKCSASASIYEYLSWYQQKPGQRPKLLIYGASVLTDGVSSRFKGSGSGTEFTLTISDLEAADAATYYCQSYNDGSSSGDAHVFGGGTEVVVK
4 | – | – | – | – | – | binds | anti-murine IL-19 Ab mAb 3 (antibody, V domains shown, also called anti-murine IL-19 Ab3) VH: QQLEESGGGLAKPEGSLTLTCKTSGFDLSSTYYMSWVRQAPGKGLEWIASIVTSGRSGASYYANWAKGRFTISKTSSTTVTLQMTSLAAADTASYFCVRDLPAPTDDRGLWGPGTLVVVSS VL: AQVLTQTPSSVSEPVGGTVTINCQASESVYNKNWLSWFQQKPGQPPKLLIYDSSDLASGVPSRFKGSGSGTHFTLTISDVQCGDAATYYCGGSYTDTYVFGGGTEVVVK
